Measured values from publication PMC4433220.

Biological target: Dps (Escherichia coli) (UniProt P0ABT2)
Assay: AFM
Settings: EMSA: 50 mM Tris-HCl pH 7.5, 0.1 mM EDTA, 50 mM NaCl, 37°C 30 min, footprinting: 50 mM Tris-HCl pH 8.0, 0.1 mM EDTA, 0.1 mM DTT, 10 mM MgCl2, 50 mM NaCl …

| Substance | binding signal (nm DNA per bound Dps) | binding signal (nm DNA per bound Dps) (nicked at GAGTC sites (9 sites), 4 nt 3' of the site, top strand) |
| --- | --- | --- |
| pET28b native | 135 |  |
| pET28b nicked with Nt.BspD6I |  | 117 |
